Results on one substance are retold here after patent US20020086983A1.

Experiment [1] deals with B42-Mch5b-FDH (residues 3-177) (UniProt Q14790). Briefly: yeast two-hybrid liquid b-gal assay; four independent experiments.
Experiment [2] concerns the target B42-Mch5b-FDH-A (residues 3-80) (UniProt Q14790). The description is as above.
In experiment [3] the target is B42-Mch5b-FDH-B (residues 102-177) (UniProt Q14790). The experiment is described as above.
The target in another experiment is B42. Briefly: yeast two-hybrid liquid b-gal assay; activation hybrid alone (background control); four independent experiments.

B42-Mch5b-FDH-B (residues 102-177), sequence (Q14790 102-177, form in doubt): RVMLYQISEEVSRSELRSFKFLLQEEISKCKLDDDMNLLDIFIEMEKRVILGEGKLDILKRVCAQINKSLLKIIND
B42-Mch5b-FDH-A (residues 3-80), sequence (Q14790 3-80, form in doubt): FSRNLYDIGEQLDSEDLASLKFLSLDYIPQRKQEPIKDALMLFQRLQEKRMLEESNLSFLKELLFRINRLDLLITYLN
B42-Mch5b-FDH (residues 3-177), sequence (Q14790 3-177, form in doubt): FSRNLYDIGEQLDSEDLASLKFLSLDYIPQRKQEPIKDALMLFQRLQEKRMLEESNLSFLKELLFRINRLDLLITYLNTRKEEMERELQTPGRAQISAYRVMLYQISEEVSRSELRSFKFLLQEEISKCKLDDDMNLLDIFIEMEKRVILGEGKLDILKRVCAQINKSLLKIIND

For the substance “LexA-FLAME-1-FDH (residues 1-160) (from UniProt O15519 1-160)”, the Liquid assay b-gal activity in experiment [1] amounted to 300 Miller units; in experiment [2] it was 52.7 Miller units; in experiment [3], 728 Miller units; in the experiment with B42 it was 23.2 Miller units.
